Positions count from the first letter of the chain named.
How the values were obtained:
Assay in all cases: EMSA
Details in all cases: pH 7.5, 30 min at 37 C
[1] = target: T1, FadR (Streptococcus suis serotype 2 strain ZY05719) (UniProt A0A0H3MZ02)
T1 sequence: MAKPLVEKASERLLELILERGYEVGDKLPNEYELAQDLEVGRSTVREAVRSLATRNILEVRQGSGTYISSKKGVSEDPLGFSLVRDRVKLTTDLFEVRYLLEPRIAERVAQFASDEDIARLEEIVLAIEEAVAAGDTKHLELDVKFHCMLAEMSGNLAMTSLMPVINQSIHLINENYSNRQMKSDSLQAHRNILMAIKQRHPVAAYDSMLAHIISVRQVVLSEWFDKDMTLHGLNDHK

[2] = target: T2, FadR-T230A T230A (Streptococcus suis serotype 2 strain ZY05719) (UniProt A0A0H3MZ02)
T2 sequence: T1 sequence with T230A

[3] = target: T3, FadR-T230E T230E (Streptococcus suis serotype 2 strain ZY05719) (UniProt A0A0H3MZ02)
T3 sequence: T1 sequence with T230E

Measured: binding

CTGTCCTCCTTGTAGATTTATACATGATGGGAAACGAGGAGGACCGTACGCTTTCCTGCCTCTCATTTCCTCTTTACATCCATAGTTTAACAGAGCAAAAAAACAAAAACTTGAAAACGCTCACATTTATTTTGAGAAATTCTTCACATTTTTAACCTTATTTATAAATAATTATCGATTATATCATCTAAATTCTGCATAATTCTTTCCGTTATATCATTATATGAATTTTTATTTTTTTATAAAAAACAGAAACTTCAATGAGTTTCTGTCAAATTTTCTAAGAAATAATCAATATCT (double strand) [adi promoter]
binds: all assays above

Reference: PMC12463286
